B1: LKB1 LFa peptide WT [human] / purified TBC1D23 PH domain (545–684) [human] (parent complex)
chain 1: GADEDEDLFDIEDDIIYTQD
chain 2: YDTDEIDSSSMSDDDRKEVVNIQTWINKPDVKHHFPCKEVKESGHMFPSHLLVTATHMYCLREIVSRKGLAYIQSRQALNSVVKITSKKKHPELITFKYGNSSASGIEILAIERYLIPNAGDATKAIKQQIMKVLDALES

Variants of: B1
Test: ITC; read off a plot

| Ka | Variant |
| --- | --- |
| ~5 10^4 M^-1 | chain 1 F9A |
| ~4.6 10^4 M^-1 | chain 1 F9L |
